Laboratory results as given in article PMC4525163, “Assembly-driven activation of the AIM2 foreign-dsDNA sensor provides a polymerization template for downstream ASC” (Nature Communications, 2015).

Key:
[1] = molecular target: the molecule itself; assay: negative-stain electron microscopy; dsDNA-free AIM2FL variants at 2 uM adsorbed to carbon grids, stained with 1% uranyl formate or uranyl acetate; filaments
[2] = molecular target: the molecule itself; assay: negative stain electron microscopy; purified protein incubated 30 min with λdsDNA (wild type also with supercoiled and nicked circular plasmids), 160 mM KCl; filament formation on dsDNA

B1: E147A-AIM2FL (natural protein, UniProt O14862 1-343, looked up)
chain: MESKYKEILLLTGLDNITDEELDRFKFFLSDEFNIATGKLHTANRIQVATLMIQNAGAVSAVMKTIRIFQKLNYMLLAKRLQEEKEKVDKQYKSVTKPKPLSQAEMSPAASAAIRNDVAKQRAAPKVSPHVKPEQKQMVAQQESIRAGFQKRCLPVMVLKAKKPFTFETQEGKQEMFHATVATEKEFFFVKVFNTLLKDKFIPKRIIIIARYYRHSGFLEVNSASRVLDAESDQKVNVPLNIIRKAGETPKINTLQTQPLGTIVNGLFVVQKVTEKKKNILFDLSDNTGKMEVLGVRNEDTMKCKEGDKVRLTFFTLSKNGEKLQLTSGVHSTIKVIKAKKKT
notes: AIM2 (absent-in-melanoma-2), full length, residues 1-343, with E147A in the HIN200 domain; source: E. coli ER2566, purified (amylose resin, HiTrap-SP, TEV cleavage, gel filtration); not shown: MBP, N-terminal, cleaved
[1]
  binding result: binds

B2: Q258A-AIM2FL (natural protein, UniProt O14862 1-343, looked up)
chain: MESKYKEILLLTGLDNITDEELDRFKFFLSDEFNIATGKLHTANRIQVATLMIQNAGAVSAVMKTIRIFQKLNYMLLAKRLQEEKEKVDKQYKSVTKPKPLSQAEMSPAASAAIRNDVAKQRAAPKVSPHVKPEQKQMVAQQESIREGFQKRCLPVMVLKAKKPFTFETQEGKQEMFHATVATEKEFFFVKVFNTLLKDKFIPKRIIIIARYYRHSGFLEVNSASRVLDAESDQKVNVPLNIIRKAGETPKINTLQTAPLGTIVNGLFVVQKVTEKKKNILFDLSDNTGKMEVLGVRNEDTMKCKEGDKVRLTFFTLSKNGEKLQLTSGVHSTIKVIKAKKKT
notes: AIM2 (absent-in-melanoma-2), full length, residues 1-343, with Q258A in the HIN200 domain; source: E. coli ER2566, purified (amylose resin, HiTrap-SP, TEV cleavage, gel filtration); not shown: MBP, N-terminal, cleaved
[1]
  binding result: binds

B3: L10A-L11A-AIM2^FL (natural protein, UniProt O14862 1-343, looked up)
chain: MESKYKEILAATGLDNITDEELDRFKFFLSDEFNIATGKLHTANRIQVATLMIQNAGAVSAVMKTIRIFQKLNYMLLAKRLQEEKEKVDKQYKSVTKPKPLSQAEMSPAASAAIRNDVAKQRAAPKVSPHVKPEQKQMVAQQESIREGFQKRCLPVMVLKAKKPFTFETQEGKQEMFHATVATEKEFFFVKVFNTLLKDKFIPKRIIIIARYYRHSGFLEVNSASRVLDAESDQKVNVPLNIIRKAGETPKINTLQTQPLGTIVNGLFVVQKVTEKKKNILFDLSDNTGKMEVLGVRNEDTMKCKEGDKVRLTFFTLSKNGEKLQLTSGVHSTIKVIKAKKKT
notes: AIM2 (absent-in-melanoma-2), residues 1-343, mutations in the PYD; Probably with the MBP tag removed as for wild-type AIM2^FL; source: E. coli ER2566, purified
[2]
  binding result: binds

B4: T50A-AIM2FL (natural protein, UniProt O14862 1-343, looked up)
chain: MESKYKEILLLTGLDNITDEELDRFKFFLSDEFNIATGKLHTANRIQVAALMIQNAGAVSAVMKTIRIFQKLNYMLLAKRLQEEKEKVDKQYKSVTKPKPLSQAEMSPAASAAIRNDVAKQRAAPKVSPHVKPEQKQMVAQQESIREGFQKRCLPVMVLKAKKPFTFETQEGKQEMFHATVATEKEFFFVKVFNTLLKDKFIPKRIIIIARYYRHSGFLEVNSASRVLDAESDQKVNVPLNIIRKAGETPKINTLQTQPLGTIVNGLFVVQKVTEKKKNILFDLSDNTGKMEVLGVRNEDTMKCKEGDKVRLTFFTLSKNGEKLQLTSGVHSTIKVIKAKKKT
notes: AIM2 (absent-in-melanoma-2), full length, residues 1-343, with T50A in the PYD; source: E. coli ER2566, purified (amylose resin, HiTrap-SP, TEV cleavage, gel filtration); not shown: MBP, N-terminal, cleaved
[1]
  binding result: binds

B5: I46D mutant of full-length AIM2 (natural protein, UniProt O14862 1-343, looked up)
chain: MESKYKEILLLTGLDNITDEELDRFKFFLSDEFNIATGKLHTANRDQVATLMIQNAGAVSAVMKTIRIFQKLNYMLLAKRLQEEKEKVDKQYKSVTKPKPLSQAEMSPAASAAIRNDVAKQRAAPKVSPHVKPEQKQMVAQQESIREGFQKRCLPVMVLKAKKPFTFETQEGKQEMFHATVATEKEFFFVKVFNTLLKDKFIPKRIIIIARYYRHSGFLEVNSASRVLDAESDQKVNVPLNIIRKAGETPKINTLQTQPLGTIVNGLFVVQKVTEKKKNILFDLSDNTGKMEVLGVRNEDTMKCKEGDKVRLTFFTLSKNGEKLQLTSGVHSTIKVIKAKKKT
notes: AIM2 (absent-in-melanoma-2), residues 1-343, mutation in the PYD; Probably with the MBP tag removed as for wild-type AIM2^FL; source: E. coli ER2566, purified
[2]
  binding result: binds
